The text below walks through data of patent US20250057881A1 (ROSWELL PARK CANCER INSTITUTE, published 2025).

The assay addresses T1, HLA-A*02:01 (human).
T1 construct: also called HLA-A2; A2
As to the kind of experiment: peptide loaded on Flex-T HLA-A*02:01 monomer by UV exchange; the resulting tetramer stained TCR-transduced T cells. The source says:
HLA-A2-binding epitope of CLDN6 between CLDN6₁₃₁₋₁₄₀ was predicted using […] database. […] (CLDN6₁₃₂₋₁₄₀) (SEQ ID NO:18) peptide was synthesized by EZBiolab with 82% purity. HLA-A2/peptide monomer was generated with Flex-T HLA-A*02:01 monomer UVX followed by tetramerization using PE-streptavidin according to the manufacturer's instruction (BioLegend). CD8-TCR-or mock-transduced cells were stained with the tetramer followed by anti-CD8 antibody.

B1: CLDN6132-140 peptide (peptide)
peptide: TLIPVCWTA
notes: Synthetic peptide, 82% purity
Take B1: the binding result is listed as “binds”.
